Experimental findings from US20250099579A1 (MARENGO THERAPEUTICS, published 2025) are described below.

The target of test [1] is Vβ6 TCR on human T cells (human). The test is described as follows: cell-based or functional assay.
For the next test, the target named is T1, human IL2R beta-gamma (human, UniProt P14784 27-239; P31785 23-262).
T1 construct: Soluble heterodimer used as analyte; also called Human IL-2Rβγ; IL-2Rβγ heterodimer
T1 sequence (looked up) 1: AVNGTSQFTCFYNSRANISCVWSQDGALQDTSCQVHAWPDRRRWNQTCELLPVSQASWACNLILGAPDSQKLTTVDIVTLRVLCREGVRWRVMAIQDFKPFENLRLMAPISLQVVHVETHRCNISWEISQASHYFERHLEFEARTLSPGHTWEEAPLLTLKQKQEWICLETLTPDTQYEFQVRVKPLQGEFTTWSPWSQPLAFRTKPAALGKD
T1 sequence (looked up) 2: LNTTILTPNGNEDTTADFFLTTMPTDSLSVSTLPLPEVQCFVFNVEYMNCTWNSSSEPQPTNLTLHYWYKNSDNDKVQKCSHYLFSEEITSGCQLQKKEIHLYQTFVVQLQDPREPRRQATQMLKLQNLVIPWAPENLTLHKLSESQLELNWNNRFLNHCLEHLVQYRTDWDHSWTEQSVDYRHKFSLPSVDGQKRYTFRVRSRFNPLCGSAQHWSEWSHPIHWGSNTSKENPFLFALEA
The test is described as follows: SPR (Biacore T200), BKM0186 captured via anti-human Fc on CM5 chip, receptor as analyte, 1:1 Langmuir model. The procedure: (§1) All interactions between bispecifics and relevant receptors were analyzed by Surface Plasmon Resonance (SPR) on a Biacore T200 instrument.
(§2) BKM0186 at 2 μg/mL was immobilized on a Series S CM5 chip via human Fe antibody to 80 RU. Human IL2Ra and cynomolgus IL2Ra were diluted to 500 nM, human IL2R beta-gamma and cynomolgus IL2R beta-gamma were diluted to 125 nM, and human IL2R trimeric complex was diluted to 50 nM and then serially diluted two-fold in 1×HBS-EP+ buffer for a total of 10 concentrations. Multi cycle kinetics was run where the chip is regenerated with 3 M Magnesium Chloride between each cycle followed by a new injection of BKM0186. An association time of 120 seconds and a dissociation time of 150 seconds for human and cyno IL2Ra, 300 seconds for human and cyno IL2R beta-gamma, and 900 seconds for the human IL2R trimeric complex was done at 30 uL/min. This assay was run in 1×HBS-EP+ Buffer pH 7.4 and 25 C. Sensorgrams were corrected by double reference subtraction using the reference flow cell not treated with BKM0186 and a blank cycle of buffer alone. BIAevaluation software was used for data analysis and the data were fit using a 1:1 Langmuir binding model for calculation of the KD value (Koff/Kon). Due to faster off rates observed for human and cyno IL2Ra binding, the data were fit using a steady state model where equilibrium binding response is analyzed.
(In general: In SPR one partner is held on a chip, and binding of the other changes the refractive index at the surface.)

The target in test [2] is T2, cynomolgus IL2R beta-gamma (cynomolgus).
T2 construct: also called Cyno IL-2Rβγ
The description is as above. The procedure: as §1, §2

Another test concerns the target T3, Human IL2Ra (human, UniProt P01589 22-213, limits assumed).
T3 construct: also called Human IL-2Rα; CD25
T3 sequence (looked up): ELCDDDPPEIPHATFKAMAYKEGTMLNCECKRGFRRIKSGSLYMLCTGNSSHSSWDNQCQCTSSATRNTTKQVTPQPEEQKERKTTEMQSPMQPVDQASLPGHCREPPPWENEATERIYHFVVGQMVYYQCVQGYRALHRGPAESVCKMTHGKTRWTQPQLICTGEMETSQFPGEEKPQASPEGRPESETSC
The test is described as follows: SPR (Biacore T200), BKM0186 captured via anti-human Fc on CM5 chip, receptor as analyte, steady state model. The procedure:
as §1, §2

A further test has as its target T4, cynomolgus IL2Ra (cynomolgus, UniProt H6WS54 22-213).
T4 construct: also called Cyno IL-2Rα
T4 sequence: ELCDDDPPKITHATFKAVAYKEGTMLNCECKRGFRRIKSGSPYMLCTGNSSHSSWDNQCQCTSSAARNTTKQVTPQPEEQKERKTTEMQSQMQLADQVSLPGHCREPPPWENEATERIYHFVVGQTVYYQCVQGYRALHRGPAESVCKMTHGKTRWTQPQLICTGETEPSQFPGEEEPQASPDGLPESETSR
The test is described as above. The method, then:
as §1, §2

Test [3] addresses T5, human IL2R trimeric complex (human, UniProt P01589 22-213; P14784 27-239; P31785 23-262).
T5 construct: also called Human IL-2Rαβγ
T5 sequence (looked up) 1: T3 sequence (looked up)
T5 sequence (looked up) 2: T1 sequence (looked up) 1
T5 sequence (looked up) 3: T1 sequence (looked up) 2
The test is described as follows: SPR (Biacore T200), BKM0186 captured via anti-human Fc on CM5 chip, receptor complex as analyte, 1:1 Langmuir model. The method, then:
as §1, §2

Test [4] addresses T6, Vβ6 TCR on human T cells (human).
T6 construct: whole, on cells; Polyclonal T cells: CDR3 and the paired alpha chains vary; also called Vβ6 T cells; TCRVβ6-5
The test is described as follows: flow cytometry on sorted, activated TCRVβ6-5 positive CD25 hi human T cells (cells carry both Vβ6 TCR and CD25; co-operative binding). The text has this:
Pan T-cells were isolated from PBMC's via negative selection on the autoMACS. T-cells were stained for TCRVβ6-5 and sorted on the Sony SH800 cell sorter into cell culture media. Sorted TCRVβ6-5 T-cells and non-sorted pan T-cells were activated and expanded using anti-CD3/CD28 beads followed by IL-2 culture. Portion of activated T-cells were allowed to rest for 3-days in serum-free media. Anti-CD25 FACS staining to confirm CD25 upregulation (from activation) and downmodulation (from resting). T-cells that represents TCRVβ6-5(pos) CD25(hi); TCRVβ6-5(pos) CD25(low); TCRVβ6-5(neg) CD25(hi); TCRVβ6-5(neg) CD25(low) are checked for BKM0186 construct binding.
This avidity effect confirms that BKM0186 engages both Vβ6 and IL-2R via a cis binding mode.

The next test has as its target T7, Human Vβ6 TCR (human).
T7 construct: The method text calls it Human Vβ6 TCR; also called Human TCRVβ
The test is described as follows: SPR (Biacore T200), BKM0186 captured via anti-human Fc on CM5 chip (80 RU), TCR as analyte, multi cycle kinetics, 1:1 Langmuir model, 25 C. The method, then: as §1
(§3) BKM0186 at 2 μg/mL was immobilized on a Series S CM5 chip via human Fe antibody to 80 RU. Human Vβ6 TCR and cynomolgus Vβ6 TCR were diluted to 250 nM and then serially diluted two-fold in 1×HBS-EP+ buffer for a total of 10 concentrations. Multi cycle kinetics was done with an association time of 120 seconds and a dissociation time of 600 seconds, for human Vβ6 TCR and 300 seconds for cynomolgus Vβ6 TCR at 30 uL/min. This assay was run in 1×HBS-EP+ Buffer pH 7.4 at 25 C. Sensorgrams were corrected by reference subtraction using the reference flow cell not treated with BKM0186. BIAevaluation software was used for data analysis and the data were fit using a 1:1 Langmuir binding model for calculation of the KD value (Koff/Kₒₙ).

For another test, the target named is T8, cynomolgus Vβ6 TCR (cynomolgus).
T8 construct: also called Cyno TCRVβ
Described as above. The procedure: as §1, §3

T6 sequence (A0A0K0K1A5 22-114): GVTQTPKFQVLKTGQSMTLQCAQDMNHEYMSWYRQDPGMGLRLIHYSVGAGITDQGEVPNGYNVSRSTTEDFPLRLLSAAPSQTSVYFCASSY

B1: BKM0186 (bispecific antibody, human IgG1, kappa, N297A)
heavy: QVQLVQSGAEVKKPGSSVKVSCKASGHDFRLTYIHWVRQAPGQGLEWMGRVSAGSGNVKYNEKFKGRVTITADTSTSTAYMELSSLRSEDTAVYYCAVSYYSYDVLDYWGQGTTVTVSSASTKGPSVFPLAPSSKSTSGGTAALGCLVKDYFPEPVTVSWNSGALTSGVHTFPAVLQSSGLYSLSSVVTVPSSSLGTQTYICNVNHKPSNTKVDKRVEPKSCDKTHTCPPCPAPELLGGPSVFLFPPKPKDTLMISRTPEVTCVVVDVSHEDPEVKFNWYVDGVEVHNAKTKPREEQYASTYRVVSVLTVLHQDWLNGKEYKCKVSNKALPAPIEKTISKAKGQPREPQVCTLPPSREEMTKNQVSLSCAVKGFYPSDIAVEWESNGQPENNYKTTPPVLDSDGSFFLVSKLTVDKSRWQQGNVFSCSVMHEALHNHYTQKSLSLSPGK
chain: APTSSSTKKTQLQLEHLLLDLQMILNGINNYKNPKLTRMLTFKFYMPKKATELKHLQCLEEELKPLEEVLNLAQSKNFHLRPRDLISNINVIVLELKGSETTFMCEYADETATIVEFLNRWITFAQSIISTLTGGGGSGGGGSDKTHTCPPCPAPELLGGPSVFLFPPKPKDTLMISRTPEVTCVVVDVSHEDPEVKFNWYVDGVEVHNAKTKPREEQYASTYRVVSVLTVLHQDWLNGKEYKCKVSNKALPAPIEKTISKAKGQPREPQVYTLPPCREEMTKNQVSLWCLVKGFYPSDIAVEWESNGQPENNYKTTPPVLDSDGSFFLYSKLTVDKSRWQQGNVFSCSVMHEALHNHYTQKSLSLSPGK
light: DIQMTQSPSFLSASVGDRVTITCKASQNVADRVVWHQQKPGKAPKALIYSSSHRYKGVPSRFSGSGSGTEFTLTISSLQPEDFATYFCQQFKSYPLTFGQGTKLEIKRTVAAPSVFIFPPSDEQLKSGTASVVCLLNNFYPREAKVQWKVDNALQSGNSQESVTEQDSKDSTYSLSSTLTLSKADYEKHKVYACEVTHQGLSSPVTKSFNRGEC
notes: also called TCRVβ/IL-2 (C125A) bispecific; IL2xTCRVβ
In the case of B1, the “EC50 of proliferation of Vβ6 T cells as a proportion of total CD4+ T cells (human PBMCs, 5 days)” value in the test with Vβ6 TCR on human T cells [1] came to 12 nM. In the test with Vβ6 TCR on human T cells [1], the “EC50 of proliferation of Vβ6 T cells as a proportion of total CD8+ T cells (human PBMCs, 5 days)” value was determined as 6 nM. For the same molecule, the Kd in the test with human IL2R beta-gamma stood at 3.8 nM; in [2], 3.3 nM; with Human IL2Ra, 45 nM; with cynomolgus IL2Ra, 48 nM; in test [3] it was 0.1 nM; with Human Vβ6 TCR, 1.7 nM. Binding in the test with cynomolgus Vβ6 TCR was characterised by a dissociation constant (Kd) of 4.9 nM. This molecule registered an EC50 with Vβ6 TCR on human T cells [4] of 0.5 nM.

Broadly, the Kd is the constant that tells how readily two partners part at equilibrium. A word on the EC50: it is the concentration needed to bring the measured effect to its halfway point. Lower therefore signals a more potent agent.
